In patent US20190127444A1 (NEW YORK UNIVERSITY, published 2019):

Experiments:
[1] = target: T1, Human serum albumin conjugated with biotin (Rockland 009-0633) (human, UniProt P02768 25-609); test: ELISA, biotinylated HSA on streptavidin plate
T1 construct: also called HSA

[2] = target: T2, LukAB toxoid variant (LukA E323A), recombinant polyhistidine-tagged (S. aureus, UniProt Q2FFA2 28-351; P21224 30-338); test: SPR (Biacore T200)
T2 sequence 1: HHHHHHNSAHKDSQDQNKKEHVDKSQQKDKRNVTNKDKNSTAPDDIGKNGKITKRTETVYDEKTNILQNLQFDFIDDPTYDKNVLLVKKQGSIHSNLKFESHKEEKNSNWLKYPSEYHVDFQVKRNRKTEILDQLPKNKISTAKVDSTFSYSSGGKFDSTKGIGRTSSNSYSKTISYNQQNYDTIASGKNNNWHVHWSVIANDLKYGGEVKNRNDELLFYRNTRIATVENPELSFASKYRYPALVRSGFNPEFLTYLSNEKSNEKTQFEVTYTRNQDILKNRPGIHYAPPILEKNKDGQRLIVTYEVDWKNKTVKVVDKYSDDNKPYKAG
T2 sequence 2: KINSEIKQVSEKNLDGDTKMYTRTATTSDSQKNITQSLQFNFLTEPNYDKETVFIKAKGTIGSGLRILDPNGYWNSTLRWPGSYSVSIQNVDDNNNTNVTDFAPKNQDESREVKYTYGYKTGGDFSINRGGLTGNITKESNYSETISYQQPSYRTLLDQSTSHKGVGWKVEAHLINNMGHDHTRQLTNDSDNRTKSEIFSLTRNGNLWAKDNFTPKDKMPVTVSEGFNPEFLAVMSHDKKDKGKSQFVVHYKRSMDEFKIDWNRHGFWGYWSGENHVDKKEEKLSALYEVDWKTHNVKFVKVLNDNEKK

[3] = target: T2, LukAB toxoid variant (LukA E323A), …; test: SPR (Biacore T200), single cycle kinetics, 1:1 model
[4] = target: T2, LukAB toxoid variant (LukA E323A), …; test: SPR (Biacore T200), construct captured via anti-human Fc, LukAB as analyte
[5] = target: T2, LukAB toxoid variant (LukA E323A), …; test: ELISA, biotinylated toxin on streptavidin plate
[6] = target: T2, LukAB toxoid variant (LukA E323A), …; test: BLI, FN3 protein on streptavidin pins, LukAB toxoid at 10 ug/mL

T1 sequence (P02768 25-609 limits assumed): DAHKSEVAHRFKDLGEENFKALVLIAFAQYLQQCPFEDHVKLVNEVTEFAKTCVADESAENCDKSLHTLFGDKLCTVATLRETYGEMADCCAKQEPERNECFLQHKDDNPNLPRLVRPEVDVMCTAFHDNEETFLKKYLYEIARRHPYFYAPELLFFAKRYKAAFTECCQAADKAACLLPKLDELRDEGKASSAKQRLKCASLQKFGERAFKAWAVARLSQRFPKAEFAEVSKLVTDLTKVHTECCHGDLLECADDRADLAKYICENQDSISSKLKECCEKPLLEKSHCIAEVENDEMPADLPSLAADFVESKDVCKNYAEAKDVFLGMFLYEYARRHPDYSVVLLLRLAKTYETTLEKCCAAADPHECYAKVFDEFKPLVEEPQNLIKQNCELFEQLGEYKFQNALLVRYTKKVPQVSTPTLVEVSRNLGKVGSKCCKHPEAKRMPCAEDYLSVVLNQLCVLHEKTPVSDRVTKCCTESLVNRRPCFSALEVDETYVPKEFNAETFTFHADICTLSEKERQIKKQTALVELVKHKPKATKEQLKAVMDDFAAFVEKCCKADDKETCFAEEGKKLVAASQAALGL

B1: Luk1012 Hla binding FN3 domain, polyhistidine-tagged version (designed binder)
chain: LPAPKNLVVSRVTEDSARLSWTAPDAAFDSFFILYVEYSVNGEAIELSVPGSERSYDLTGLKPGTEYDVIIGGVKGGNHSKPLVAFFTT
binding result [1]: no binding (tested: 1 µM)

B2: mAb 5133 PRASA A6 HC-L4-E-L4-AB (Table 1 Construct 11) (bispecific antibody)
heavy: EVQLVETGGGLVKPGGSLRLSCSASRFSFRDYYMTWIRQAPGKGPEWVSHISGSGSTIYYADSVRGRFTISRDNAKSSLYLQMDSLQADDTAVYYCARGGRATSYYWVHWGPGTLVTVSSASTKGPSVFPLAPSSKSTSGGTAALGCLVKDYFPEPVTVSWNSGALTSGVHTFPAVLQSSGLYSLSSVVTVPSSSLGTQTYICNVNHKPSNTKVDKKVEPKSCDKTHTCPPCPAPPVAGPDVFLFPPKPKDTLMISRTPEVTCVVVDVSHEDPEVKFNWYVDGVEVHNAKTKPREEQYNSTYRVVSVLTVLHQDWLNGKEYKCKVSNAALPAPIAKTISKAKGQPREPQVYTLPPSRDELTKNQVSLTCLVKGFYPSDIAVEWESNGQPENNYKTTPPVLDSDGSFFLYSKLTVDKSRWQQGNVFSCSVMHEALHNRFTQKSLSLSPGKGGGGSGGGGSGGGGSGGGGSMLPAPKNLVVSRVTEDSARLSWTAPDAAFDSFHIEYAEPWVWGEAIVLTVPGSERSYDLTGLKPGTEYVVFIGGVKGGHNSTPLSAIFTTGGGGSGGGGSGGGGSGGGGSMLPAPKNLVVSRVTEDSARLSWTAPDAAFDSFWITYEEKFYRGEAIVLTVPGSERSYDLTGLKPGTEYKVWIVGVKGGQGSWPLSAIFTT
light: EIVLTQSPATLSLSPGERATLSCRASQSVSGYLGWYQQKPGQAPRLLIYGASSRATGIPDRFSGSGSGTDFTLTISRLEPEDFAVYYCQQYGSSPLTFGGGTKLEIKRTVAAPSVFIFPPSDEQLKSGTASVVCLLNNFYPREAKVQWKVDNALQSGNSQESVTEQDSKDSTYSLSSTLTLSKADYEKHKVYACEVTHQGLSSPVTKSFNRGEC
notes: also called CR5133 PRASA A6 HC-L4-E-L4-AB; 4×4 variant
fold higher binding affinity than Construct 6 [2]: ~6 fold
Kd [3]: 0.012 nM

B3: mAb 5133 PRASA A6 HC-L4-E (Table 1 Construct 15) (bispecific antibody)
heavy: EVQLVETGGGLVKPGGSLRLSCSASRFSFRDYYMTWIRQAPGKGPEWVSHISGSGSTIYYADSVRGRFTISRDNAKSSLYLQMDSLQADDTAVYYCARGGRATSYYWVHWGPGTLVTVSSASTKGPSVFPLAPSSKSTSGGTAALGCLVKDYFPEPVTVSWNSGALTSGVHTFPAVLQSSGLYSLSSVVTVPSSSLGTQTYICNVNHKPSNTKVDKKVEPKSCDKTHTCPPCPAPPVAGPDVFLFPPKPKDTLMISRTPEVTCVVVDVSHEDPEVKFNWYVDGVEVHNAKTKPREEQYNSTYRVVSVLTVLHQDWLNGKEYKCKVSNAALPAPIAKTISKAKGQPREPQVYTLPPSRDELTKNQVSLTCLVKGFYPSDIAVEWESNGQPENNYKTTPPVLDSDGSFFLYSKLTVDKSRWQQGNVFSCSVMHEALHNRFTQKSLSLSPGKGGGGSGGGGSGGGGSGGGGSMLPAPKNLVVSRVTEDSARLSWTAPDAAFDSFHIEYAEPWVWGEAIVLTVPGSERSYDLTGLKPGTEYVVFIGGVKGGHNSTPLSAIFTT
light: EIVLTQSPATLSLSPGERATLSCRASQSVSGYLGWYQQKPGQAPRLLIYGASSRATGIPDRFSGSGSGTDFTLTISRLEPEDFAVYYCQQYGSSPLTFGGGTKLEIKRTVAAPSVFIFPPSDEQLKSGTASVVCLLNNFYPREAKVQWKVDNALQSGNSQESVTEQDSKDSTYSLSSTLTLSKADYEKHKVYACEVTHQGLSSPVTKSFNRGEC
notes: also called CR5133 PRASA A6 HC-L4-E
binding result [4]: no binding (tested: 100 nM)

B4: mAb 5133 PRASA A6 HC-L4-AB (Table 1 Construct 6) (bispecific antibody)
heavy: EVQLVETGGGLVKPGGSLRLSCSASRFSFRDYYMTWIRQAPGKGPEWVSHISGSGSTIYYADSVRGRFTISRDNAKSSLYLQMDSLQADDTAVYYCARGGRATSYYWVHWGPGTLVTVSSASTKGPSVFPLAPSSKSTSGGTAALGCLVKDYFPEPVTVSWNSGALTSGVHTFPAVLQSSGLYSLSSVVTVPSSSLGTQTYICNVNHKPSNTKVDKKVEPKSCDKTHTCPPCPAPPVAGPDVFLFPPKPKDTLMISRTPEVTCVVVDVSHEDPEVKFNWYVDGVEVHNAKTKPREEQYNSTYRVVSVLTVLHQDWLNGKEYKCKVSNAALPAPIAKTISKAKGQPREPQVYTLPPSRDELTKNQVSLTCLVKGFYPSDIAVEWESNGQPENNYKTTPPVLDSDGSFFLYSKLTVDKSRWQQGNVFSCSVMHEALHNRFTQKSLSLSPGKGGGGSGGGGSGGGGSGGGGSMLPAPKNLVVSRVTEDSARLSWTAPDAAFDSFWITYEEKFYRGEAIVLTVPGSERSYDLTGLKPGTEYKVWIVGVKGGQGSWPLSAIFTT
light: EIVLTQSPATLSLSPGERATLSCRASQSVSGYLGWYQQKPGQAPRLLIYGASSRATGIPDRFSGSGSGTDFTLTISRLEPEDFAVYYCQQYGSSPLTFGGGTKLEIKRTVAAPSVFIFPPSDEQLKSGTASVVCLLNNFYPREAKVQWKVDNALQSGNSQESVTEQDSKDSTYSLSSTLTLSKADYEKHKVYACEVTHQGLSSPVTKSFNRGEC
notes: also called CR5133 PRASA A6 HC-L4-AB
Kd [3]: 0.07 nM

B5: 3×4 linker variant of Construct 11 (bispecific antibody)
heavy: EVQLVETGGGLVKPGGSLRLSCSASRFSFRDYYMTWIRQAPGKGPEWVSHISGSGSTIYYADSVRGRFTISRDNAKSSLYLQMDSLQADDTAVYYCARGGRATSYYWVHWGPGTLVTVSSASTKGPSVFPLAPSSKSTSGGTAALGCLVKDYFPEPVTVSWNSGALTSGVHTFPAVLQSSGLYSLSSVVTVPSSSLGTQTYICNVNHKPSNTKVDKKVEPKSCDKTHTCPPCPAPPVAGPDVFLFPPKPKDTLMISRTPEVTCVVVDVSHEDPEVKFNWYVDGVEVHNAKTKPREEQYNSTYRVVSVLTVLHQDWLNGKEYKCKVSNAALPAPIAKTISKAKGQPREPQVYTLPPSRDELTKNQVSLTCLVKGFYPSDIAVEWESNGQPENNYKTTPPVLDSDGSFFLYSKLTVDKSRWQQGNVFSCSVMHEALHNRFTQKSLSLSPGKGGGGSGGGGSGGGGSMLPAPKNLVVSRVTEDSARLSWTAPDAAFDSFHIEYAEPWVWGEAIVLTVPGSERSYDLTGLKPGTEYVVFIGGVKGGHNSTPLSAIFTTGGGGSGGGGSGGGGSGGGGSMLPAPKNLVVSRVTEDSARLSWTAPDAAFDSFWITYEEKFYRGEAIVLTVPGSERSYDLTGLKPGTEYKVWIVGVKGGQGSWPLSAIFTT
light: EIVLTQSPATLSLSPGERATLSCRASQSVSGYLGWYQQKPGQAPRLLIYGASSRATGIPDRFSGSGSGTDFTLTISRLEPEDFAVYYCQQYGSSPLTFGGGTKLEIKRTVAAPSVFIFPPSDEQLKSGTASVVCLLNNFYPREAKVQWKVDNALQSGNSQESVTEQDSKDSTYSLSSTLTLSKADYEKHKVYACEVTHQGLSSPVTKSFNRGEC
binding result [5]: binds

B6: mAb 5133 PRASA A6 (CR5133 PRASA A6; Table 1 Construct 4) (antibody)
heavy: EVQLVETGGGLVKPGGSLRLSCSASRFSFRDYYMTWIRQAPGKGPEWVSHISGSGSTIYYADSVRGRFTISRDNAKSSLYLQMDSLQADDTAVYYCARGGRATSYYWVHWGPGTLVTVSSASTKGPSVFPLAPSSKSTSGGTAALGCLVKDYFPEPVTVSWNSGALTSGVHTFPAVLQSSGLYSLSSVVTVPSSSLGTQTYICNVNHKPSNTKVDKKVEPKSCDKTHTCPPCPAPPVAGPDVFLFPPKPKDTLMISRTPEVTCVVVDVSHEDPEVKFNWYVDGVEVHNAKTKPREEQYNSTYRVVSVLTVLHQDWLNGKEYKCKVSNAALPAPIAKTISKAKGQPREPQVYTLPPSRDELTKNQVSLTCLVKGFYPSDIAVEWESNGQPENNYKTTPPVLDSDGSFFLYSKLTVDKSRWQQGNVFSCSVMHEALHNRFTQKSLSLSPGK
light: EIVLTQSPATLSLSPGERATLSCRASQSVSGYLGWYQQKPGQAPRLLIYGASSRATGIPDRFSGSGSGTDFTLTISRLEPEDFAVYYCQQYGSSPLTFGGGTKLEIKRTVAAPSVFIFPPSDEQLKSGTASVVCLLNNFYPREAKVQWKVDNALQSGNSQESVTEQDSKDSTYSLSSTLTLSKADYEKHKVYACEVTHQGLSSPVTKSFNRGEC
notes: no FN3 domains
binding result [4]: no binding (tested: 100 nM)

B7: Luk969 Hla binding FN3 domain, polyhistidine-tagged version (designed binder)
chain: LPAPKNLVVSRVTEDSARLSWNSEIAEQFFFDSFLIQYQESEKVGEAIVLTVPGSERSYDLTGLKPGTEYTVSIYGVWGHWDWYWKTSNPLSAIFTT
binding result [1]: no binding (tested: 1 µM)

B8: Luk982 Hla binding FN3 domain, polyhistidine-tagged version (designed binder)
chain: LPAPKNLVVSRVTEDSARLSWTAPDAAFDSFAIGYPEYHDAGEAIHLFVPGSERSYDLTGLKPGTEYVVAIRGVKGGHASEPLHAHFTT
binding result [1]: no binding (tested: 1 µM)

B9: Luk967 Hla binding FN3 domain, polyhistidine-tagged version (designed binder)
chain: LPAPKNLVVSRVTEDSARLSWEANAWDDVNFDSFLIQYQESEKVGEAIVLTVPGSERSYDLTGLKPGTEYTVSIYGVWNQTHYRWPSNPLSAIFTT
binding result [1]: no binding (tested: 1 µM)

B10: Luk17-His-SA (designed binder)
chain: MLPAPKNLVVSRVTEDSARLSWTAPDAAFDSFWITYEEKFYRGEAIVLTVPGSERSYDLTGLKPGTEYKVWIVGVKGGQGSWPLSAIFTTGGHHHHHHGGGLNDIFEAQKIEWHE
binding result [6]: binds

B11: Luk970 Hla binding FN3 domain, polyhistidine-tagged version (designed binder)
chain: LPAPKNLVVSRVTEDSARLSWNRGLIPFDSFLIQYQESEKVGEAIVLTVPGSERSYDLTGLKLGTEYTVSIYGVGTYYPWWPLSNPLSAIFTT
binding result [1]: no binding (tested: 1 µM)
